This note sets out measurements from US20250388666A1 (BRIGHAM AND WOMEN S HOSPITAL, published 2025).

The Kd is a measure of binding affinity in units of concentration. The low end stands for a tighter complex, the high end for a looser complex.

“And” between values parts separate entries of the source, which are not always exact repeats. Equal values may be shown once.

T1: CEACAM1 (Sino Biological) (human, UniProt P13688 35-428, limits assumed)
T1 construct: may be the same as CEACAM1-HIS; also called hCEACAM1; biotinylated soluble CEACAM1
T1 sequence: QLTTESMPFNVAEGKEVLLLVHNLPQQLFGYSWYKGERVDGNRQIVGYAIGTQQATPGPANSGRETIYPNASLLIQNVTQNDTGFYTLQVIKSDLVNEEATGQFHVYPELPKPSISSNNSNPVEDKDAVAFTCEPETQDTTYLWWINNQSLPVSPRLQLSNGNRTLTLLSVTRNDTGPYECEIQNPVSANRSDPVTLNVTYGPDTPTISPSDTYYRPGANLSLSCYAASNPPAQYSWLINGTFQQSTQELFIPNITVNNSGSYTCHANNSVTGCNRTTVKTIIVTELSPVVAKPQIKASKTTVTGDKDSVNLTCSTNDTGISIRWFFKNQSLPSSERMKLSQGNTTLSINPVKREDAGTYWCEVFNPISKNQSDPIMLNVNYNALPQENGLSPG

B1: He13/L3 (antibody, IgG4, V domains shown)
VH: EVQLLESGGGLVQPGGSLRLSCAASGFSFSDYYLYWVRQAPGKGLEWVATISVGGGQTSYADSVKGRFTISRDNSKNTLYLQMNSLRAEDTAMYYCTRGLYYGPSWLAYWGQGTLVTVSS
VL: DIVMTQSPDSLAVSLGERATINCKSSQSLLNSANQKNYLAWYQQKPGQPPKLLIYFASTRESGVPDRFSGSGSGTDFTLTISSLQAEDVAVYYCQSHFPFPFTFGGGTKVEIK
notes: IgG4 S241P, kappa
B2: He13/L16 (antibody, IgG4, V domains shown)
VH: EVQLLESGGGLVQPGGSLRLSCAASGFSFSDYYLYWVRQAPGKGLEWVATISVGGGQTSYADSVKGRFTISRDNSKNTLYLQMNSLRAEDTAMYYCTRGLYYGPSWLAYWGQGTLVTVSS
VL: DIVMTQSPDSLAVSLGERATINCKSSQSLLNSANQKNYLAWYQQKPGQPPKLLIYFASTRESGVPDRFSGSGSGTDFTLTISSLQAEDVAVYYCQSHYPYPFTFGGGTKVEIK
notes: IgG4 S241P, kappa
B3: He14/L3 (antibody, IgG4, V domains shown)
VH: EVQLLESGGGLVQPGGSLRLSCAASGFSFSDYYLYWVRQAPGKGLEWVATISVGGGQTSYADSVKGRFTISRDNSKNTLYLQMNSLRAEDTAMYYCTRGLYYGPSWVAYWGQGTLVTVSS
VL: DIVMTQSPDSLAVSLGERATINCKSSQSLLNSANQKNYLAWYQQKPGQPPKLLIYFASTRESGVPDRFSGSGSGTDFTLTISSLQAEDVAVYYCQSHFPFPFTFGGGTKVEIK
notes: IgG4 S241P, kappa
B4: He13/L4#2 (antibody, IgG4, V domains shown)
VH: EVQLLESGGGLVQPGGSLRLSCAASGFSFSDYYLYWVRQAPGKGLEWVATISVGGGQTSYADSVKGRFTISRDNSKNTLYLQMNSLRAEDTAMYYCTRGLYYGPSWLAYWGQGTLVTVSS
VL: DIVMTQSPDSLAVSLGERATINCKSSQSLLNSANQKNYLAWYQQKPGQPPKLLIYFASTRESGVPDRFSGSGSGTDFTLTISSLQAEDVAVYYCQSHYPYPYTFGGGTKVEIK
notes: IgG4 S241P, kappa
B5: He14/L4 #1 (antibody, IgG4, V domains shown)
VH: EVQLLESGGGLVQPGGSLRLSCAASGFSFSDYYLYWVRQAPGKGLEWVATISVGGGQTSYADSVKGRFTISRDNSKNTLYLQMNSLRAEDTAMYYCTRGLYYGPSWVAYWGQGTLVTVSS
VL: DIVMTQSPDSLAVSLGERATINCKSSQSLLNSANQKNYLAWYQQKPGQPPKLLIYFASTRESGVPDRFSGSGSGTDFTLTISSLQAEDVAVYYCQSHFPYYYTFGGGTKVEIK
notes: IgG4 S241P, kappa
B6: He14/L5 (antibody, IgG4, V domains shown)
VH: EVQLLESGGGLVQPGGSLRLSCAASGFSFSDYYLYWVRQAPGKGLEWVATISVGGGQTSYADSVKGRFTISRDNSKNTLYLQMNSLRAEDTAMYYCTRGLYYGPSWVAYWGQGTLVTVSS
VL: DIVMTQSPDSLAVSLGERATINCKSSQSLLNSANQKNYLAWYQQKPGQPPKLLIYFASTRESGVPDRFSGSGSGTDFTLTISSLQAEDVAVYYCQSHYPFAFTFGGGTKVEIK
notes: IgG4 S241P, kappa
B7: He13/Parent VL (antibody, IgG4, V domains shown)
VH: EVQLLESGGGLVQPGGSLRLSCAASGFSFSDYYLYWVRQAPGKGLEWVATISVGGGQTSYADSVKGRFTISRDNSKNTLYLQMNSLRAEDTAMYYCTRGLYYGPSWLAYWGQGTLVTVSS
VL: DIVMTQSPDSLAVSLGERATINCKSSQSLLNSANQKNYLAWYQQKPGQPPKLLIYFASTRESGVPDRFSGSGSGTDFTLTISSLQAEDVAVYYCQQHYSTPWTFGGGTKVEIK
notes: IgG4 S241P, kappa
B8: He14/L16 (antibody, IgG4, V domains shown)
VH: EVQLLESGGGLVQPGGSLRLSCAASGFSFSDYYLYWVRQAPGKGLEWVATISVGGGQTSYADSVKGRFTISRDNSKNTLYLQMNSLRAEDTAMYYCTRGLYYGPSWVAYWGQGTLVTVSS
VL: DIVMTQSPDSLAVSLGERATINCKSSQSLLNSANQKNYLAWYQQKPGQPPKLLIYFASTRESGVPDRFSGSGSGTDFTLTISSLQAEDVAVYYCQSHYPYPFTFGGGTKVEIK
notes: IgG4 S241P, kappa
B9: He13/L4 #1 (antibody, IgG4, V domains shown)
VH: EVQLLESGGGLVQPGGSLRLSCAASGFSFSDYYLYWVRQAPGKGLEWVATISVGGGQTSYADSVKGRFTISRDNSKNTLYLQMNSLRAEDTAMYYCTRGLYYGPSWLAYWGQGTLVTVSS
VL: DIVMTQSPDSLAVSLGERATINCKSSQSLLNSANQKNYLAWYQQKPGQPPKLLIYFASTRESGVPDRFSGSGSGTDFTLTISSLQAEDVAVYYCQSHFPYYYTFGGGTKVEIK
notes: IgG4 S241P, kappa
B10: He13/L18 (antibody, IgG4, V domains shown)
VH: EVQLLESGGGLVQPGGSLRLSCAASGFSFSDYYLYWVRQAPGKGLEWVATISVGGGQTSYADSVKGRFTISRDNSKNTLYLQMNSLRAEDTAMYYCTRGLYYGPSWLAYWGQGTLVTVSS
VL: DIVMTQSPDSLAVSLGERATINCKSSQSLLNSANQKNYLAWYQQKPGQPPKLLIYFASTRESGVPDRFSGSGSGTDFTLTISSLQAEDVAVYYCQSHFPYPFTFGGGTKVEIK
notes: IgG4 S241P, kappa
B11: He13/L6 (antibody, IgG4, V domains shown)
VH: EVQLLESGGGLVQPGGSLRLSCAASGFSFSDYYLYWVRQAPGKGLEWVATISVGGGQTSYADSVKGRFTISRDNSKNTLYLQMNSLRAEDTAMYYCTRGLYYGPSWLAYWGQGTLVTVSS
VL: DIVMTQSPDSLAVSLGERATINCKSSQSLLNSANQKNYLAWYQQKPGQPPKLLIYFASTRESGVPDRFSGSGSGTDFTLTISSLQAEDVAVYYCQSHYPFSFTFGGGTKVEIK
notes: IgG4 S241P, kappa
B12: He13/L17 (antibody, IgG4, V domains shown)
VH: EVQLLESGGGLVQPGGSLRLSCAASGFSFSDYYLYWVRQAPGKGLEWVATISVGGGQTSYADSVKGRFTISRDNSKNTLYLQMNSLRAEDTAMYYCTRGLYYGPSWLAYWGQGTLVTVSS
VL: DIVMTQSPDSLAVSLGERATINCKSSQSLLNSANQKNYLAWYQQKPGQPPKLLIYFASTRESGVPDRFSGSGSGTDFTLTISSLQAEDVAVYYCQSHYPYPYTFGGGTKVEIK
notes: IgG4 S241P, kappa
B13: He13/L20 (antibody, IgG4, V domains shown)
VH: EVQLLESGGGLVQPGGSLRLSCAASGFSFSDYYLYWVRQAPGKGLEWVATISVGGGQTSYADSVKGRFTISRDNSKNTLYLQMNSLRAEDTAMYYCTRGLYYGPSWLAYWGQGTLVTVSS
VL: DIVMTQSPDSLAVSLGERATINCKSSQSLLNSANQKNYLAWYQQKPGQPPKLLIYFASTRESGVPDRFSGSGSGTDFTLTISSLQAEDVAVYYCQSHFPYPLTFGGGTKVEIK
notes: IgG4 S241P, kappa
B14: He14/L2 (antibody, IgG4, V domains shown)
VH: EVQLLESGGGLVQPGGSLRLSCAASGFSFSDYYLYWVRQAPGKGLEWVATISVGGGQTSYADSVKGRFTISRDNSKNTLYLQMNSLRAEDTAMYYCTRGLYYGPSWVAYWGQGTLVTVSS
VL: DIVMTQSPDSLAVSLGERATINCKSSQSLLNSANQKNYLAWYQQKPGQPPKLLIYFASTRESGVPDRFSGSGSGTDFTLTISSLQAEDVAVYYCQSHYPFPYTFGGGTKVEIK
notes: IgG4 S241P, kappa
B15: He13/L19 (antibody, IgG4, V domains shown)
VH: EVQLLESGGGLVQPGGSLRLSCAASGFSFSDYYLYWVRQAPGKGLEWVATISVGGGQTSYADSVKGRFTISRDNSKNTLYLQMNSLRAEDTAMYYCTRGLYYGPSWLAYWGQGTLVTVSS
VL: DIVMTQSPDSLAVSLGERATINCKSSQSLLNSANQKNYLAWYQQKPGQPPKLLIYFASTRESGVPDRFSGSGSGTDFTLTISSLQAEDVAVYYCQSHIYPNFTFGGGTKVEIK
notes: IgG4 S241P, kappa
B16: He14/L4#2 (antibody, IgG4, V domains shown)
VH: EVQLLESGGGLVQPGGSLRLSCAASGFSFSDYYLYWVRQAPGKGLEWVATISVGGGQTSYADSVKGRFTISRDNSKNTLYLQMNSLRAEDTAMYYCTRGLYYGPSWVAYWGQGTLVTVSS
VL: DIVMTQSPDSLAVSLGERATINCKSSQSLLNSANQKNYLAWYQQKPGQPPKLLIYFASTRESGVPDRFSGSGSGTDFTLTISSLQAEDVAVYYCQSHYPYPYTFGGGTKVEIK
notes: IgG4 S241P, kappa
B17: He14/L6 (antibody, IgG4, V domains shown)
VH: EVQLLESGGGLVQPGGSLRLSCAASGFSFSDYYLYWVRQAPGKGLEWVATISVGGGQTSYADSVKGRFTISRDNSKNTLYLQMNSLRAEDTAMYYCTRGLYYGPSWVAYWGQGTLVTVSS
VL: DIVMTQSPDSLAVSLGERATINCKSSQSLLNSANQKNYLAWYQQKPGQPPKLLIYFASTRESGVPDRFSGSGSGTDFTLTISSLQAEDVAVYYCQSHYPFSFTFGGGTKVEIK
notes: IgG4 S241P, kappa
B18: He13/L5 (antibody, IgG4, V domains shown)
VH: EVQLLESGGGLVQPGGSLRLSCAASGFSFSDYYLYWVRQAPGKGLEWVATISVGGGQTSYADSVKGRFTISRDNSKNTLYLQMNSLRAEDTAMYYCTRGLYYGPSWLAYWGQGTLVTVSS
VL: DIVMTQSPDSLAVSLGERATINCKSSQSLLNSANQKNYLAWYQQKPGQPPKLLIYFASTRESGVPDRFSGSGSGTDFTLTISSLQAEDVAVYYCQSHYPFAFTFGGGTKVEIK
notes: IgG4 S241P, kappa

This test has as its target T1, CEACAM1 (Sino Biological). The test is described as follows: SPR single-cycle. The method in brief: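 Humanized affinity-matured IgGs from crude supernatants captured on Protein A to ~100 RU, with CEACAM1 analyte injected at 25–100 nM (three-point, two-fold) in HBS-P+ without regeneration. 200 s association per injection, 300 s single dissociation; reference-channel and blank subtracted.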
B1: the Kd is 108 nM and the “fold better than Parent (KD)” value is 1.47 fold. For B2, the Kd came to 105 nM and the “fold better than Parent (KD)” value was 1.51 fold. B3: binding was put at a Kd of 107 nM and the “fold better than Parent (KD)” value worked out at 1.49 fold. The corresponding values for B4 are 289 nM and 1.91 fold. Turning to B5, the affinity, expressed as Kd, was 93 nM and the “fold better than Parent (KD)” value was 1.7 fold.

On to B6, for which the Kd was found to be 102 nM and the “fold better than Parent (KD)” value worked out at 1.56 fold. In the case of B7, the Kd was found to be 91 nM and the “fold better than Parent (KD)” value was 1.74 fold.

Turning to B8, the Kd worked out at 93 nM and the “fold better than Parent (KD)” value came out at 1.7 fold. The corresponding values for B9 are 115 nM and 1.38 fold. The corresponding values for B10 are 103 nM and 1.54 fold. For B11, binding was characterised by a dissociation constant (Kd) of 105 nM and the “fold better than Parent (KD)” value stood at 1.51 fold. Turning to B12, the Kd was 372 nM and 159 nM. As for B13, the affinity, expressed as Kd, was 109 nM and the “fold better than Parent (KD)” value was determined as 1.46 fold. Take B14: the Kd worked out at 102 nM and the “fold better than Parent (KD)” value came out at 1.56 fold. For B15, in that order: 129 nM and 1.23 fold. For B16, in that order: 396 nM and 1.39 fold.

Regarding B17, the Kd is 111 nM and the “fold better than Parent (KD)” value was 1.43 fold.

With B18, the Kd is 95 nM and the “fold better than Parent (KD)” value is 1.68 fold.
